Where “and” joins values, the source holds several entries; their conditions need not be identical. Equal values may be shown once. Square brackets hold non-standard residues; d marks the D form. Peptide text beside a SMILES is read from it. * marks the point of attachment. ONp = O=[N+]([O-])c1ccc(O*)cc1; X2 = c1ccc(N=Nc2ccc(O*)cc2)cc1; X3 = O=[N+]([O-])c1cccc(O*)c1; X1 = Cc1cc(=O)oc2cc(O*)ccc12; Nva = CCC[C@H](N)C(=O)O
Key:
[1] = biological target: T1, NS3/4A(1-631)/4A(1-54) (Hepatitis C virus genotype 1a, UniProt P27958); test: Cleavage efficiency of nitrophenyl and other ester based chromogenic substrates, spectrophotometric; assay type: biochemical, HCV 1a(H); conditions: 25 mM MOPS pH 6.5, 10% glycerol, 0.15 M NaCl, 0.2% lauryl maltoside
T1 construct: a noncovalent complex between NS4A (54 residues) and NS3 (631 residues); histidine tag (N, cleaved yes); made in house; host or cells: baculovirus system / insect cells
Protocol: The chromogenic substrates defined by SEQ ID NOs: 5-13 were synthetically produced as described above and tested for cleavage efficiency in 25 mM MOPS buffer, pH 6.5, containing 10% (v/v) glycerol, 0.15 M NaCl, 0.2% lauryl maltoside. The substrates were cleaved by NS3/4A(1-631)/4A(1-54) (see Example 1). The rate of product formation was monitored by a spectrophotometer, at 400 nm for 4Np, 370 nm for PAP, and 340 nm for 3Np and HMC.

[2] = biological target: Ac-DTEDVVA(Nva)-O-PAP (HCV)
[3] = biological target: Ac-DTEDVVA(Nva)-O-4Np (HCV)
[4] = biological target: Ac-DTEDVVA(Nva)-O-HMC (HCV)
[5] = biological target: Ac-DTEDVVA(Nva)-O-3Np (HCV)
[6] = biological target: […](Nva)-O-3Np (HCV)
[7] = biological target: Ac-DTEDVVP(Nva)-O-HMC (HCV)
[8] = biological target: Ac-[…](Nva)-O-4Np (HCV)
[9] = biological target: Ac-DTEDVVP(Nva)-O-PAP (HCV)
[10] = biological target: biotinylated amide substrates
[11] = biological target: biotinylated ester substrate
[12] = biological target: …-(4-nitroanilide) (HCV)
[13] = biological target: (Ac-)[…]-(2-Cl-4-nitroanilide) (HCV)

Compound: CCC[C@H](NC(=O)[C@H](C)NC(=O)[C@@H](NC(=O)[C@@H](NC(=O)[C@H](CC(=O)O)NC(=O)[C@H](CCC(=O)O)NC(=O)[C@@H](NC(=O)[C@H](CC(=O)O)NC(C)=O)[C@@H](C)O)C(C)C)C(C)C)C(=O)Oc1cccc([N+](=O)[O-])c1 [Ac-DTEDVVA(Nva)-O-3Np] (Ac-DTEDVVA[Nva]-X3)
- Km [1]: 48 µM

Compound: CCC[C@H](NC(=O)[C@H](C)NC(=O)[C@@H](NC(=O)[C@@H](NC(=O)[C@H](CC(=O)O)NC(=O)[C@H](CCC(=O)O)NC(=O)[C@@H](NC(=O)[C@H](CC(=O)O)NC(C)=O)[C@@H](C)O)C(C)C)C(C)C)C(=O)Oc1ccc([N+](=O)[O-])cc1 [Ac-DTEDVVA(Nva)-O-4Np] (Ac-DTEDVVA[Nva]-ONp)
- Km [1]: 16 µM

Compound: CCC[C@H](NC(=O)[C@H](C)NC(=O)[C@@H](NC(=O)[C@@H](NC(=O)[C@H](CC(=O)O)NC(=O)[C@H](CCC(=O)O)NC(=O)[C@@H](NC(=O)[C@H](CC(=O)O)NC(C)=O)[C@@H](C)O)C(C)C)C(C)C)C(=O)Oc1ccc2c(C)cc(=O)oc2c1 [Ac-DTEDVVA(Nva)-O-HMC] (Ac-DTEDVVA[Nva]-X1)
- Km [1]: 20 µM

Compound: CCC[C@H](NC(=O)[C@H](C)NC(=O)[C@@H](NC(=O)[C@@H](NC(=O)[C@H](CC(=O)O)NC(=O)[C@H](CCC(=O)O)NC(=O)[C@@H](NC(=O)[C@H](CC(=O)O)NC(C)=O)[C@@H](C)O)C(C)C)C(C)C)C(=O)Oc1ccc(N=Nc2ccccc2)cc1 [Ac-DTEDVVA(Nva)-O-PAP] (Ac-DTEDVVA[Nva]-X2)
- Km [1]: 17 µM

Compound: CCC[C@H](NC(=O)[C@@H]1CCCN1C(=O)[C@@H](NC(=O)[C@@H](NC(=O)[C@H](CC(=O)O)NC(=O)[C@H](CCC(=O)O)NC(=O)[C@@H](NC(=O)[C@H](CC(=O)O)NC(C)=O)[C@@H](C)O)C(C)C)C(C)C)C(=O)Oc1ccc2c(C)cc(=O)oc2c1 [Ac-DTEDVVP(Nva)-O-HMC] (Ac-DTEDVVP[Nva]-X1)
- Km [1]: 40 µM

Compound: CCC[C@H](NC(=O)[C@@H]1CCCN1C(=O)[C@@H](NC(=O)[C@@H](NC(=O)[C@H](CC(=O)O)NC(=O)[C@H](CCC(=O)O)NC(=O)[C@@H](NC(=O)[C@H](CC(=O)O)NC(C)=O)[C@@H](C)O)C(C)C)C(C)C)C(=O)Oc1ccc(N=Nc2ccccc2)cc1 [Ac-DTEDVVP(Nva)-O-PAP] (Ac-DTEDVVP[Nva]-X2)
- Km [1]: 18 µM

Compound: HCV NS3(1-631)/4A(1-54) protease, non-covalent complex of full-length HCV 1a(H) NS3 with amino acids (enzyme)
- kcat/Km [2]: 4000 M⁻¹ s⁻¹
- kcat/Km [3]: 38000 M⁻¹ s⁻¹
- kcat/Km [4]: 8400 M⁻¹ s⁻¹
- kcat/Km [5]: 7300 M⁻¹ s⁻¹
- kcat/Km [6]: 11100 M⁻¹ s⁻¹
- kcat/Km [7]: 8400 M⁻¹ s⁻¹
- kcat/Km [8]: 25000 M⁻¹ s⁻¹
- kcat/Km [9]: 13000 M⁻¹ s⁻¹
- catalytic efficiency [10]: < 30000 M⁻¹ s⁻¹
- catalytic efficiency [11]: < 460000 M⁻¹ s⁻¹
- kcat/Km [12]: 15 M⁻¹ s⁻¹ and 45 M⁻¹ s⁻¹
- kcat/Km [13]: 10 M⁻¹ s⁻¹
